Assay [1] concerns the target histone H3. The assay can be described thus: TrAP-tag pull-down and mass spectrometry. The settings on record: DT40 cells blocked in mitosis with colcemid, then forced to exit from mitosis by addition of roscovitine; parent: 17.
For assay [2], the target named is NUP153 (endogenous, DT40). The assay can be described thus: TrAP-tag pull-down and mass spectrometry. The note with it: DT40 cells blocked in mitosis with colcemid, then forced to exit from mitosis by addition of roscovitine; parent: 8.
Assay [3] addresses Importin β (endogenous, DT40). As to the kind of experiment: TrAP-tag pull-down and mass spectrometry. The settings on record: DT40 cells blocked in mitosis with colcemid, then forced to exit from mitosis by addition of roscovitine; parent: 15.
Assay [4] addresses NUP50 (endogenous, DT40). The assay can be described thus: TrAP-tag pull-down and mass spectrometry. The note with it: DT40 cells blocked in mitosis with colcemid, then forced to exit from mitosis by addition of roscovitine; parent: 17.
The target of assay [5] is PP1. The assay can be described thus: TrAP-tag pull-down and mass spectrometry. The settings on record: DT40 cells blocked in mitosis with colcemid, then forced to exit from mitosis by addition of roscovitine; parent: 18.
In assay [6] the target is histone H2B. The assay can be described thus: TrAP-tag pull-down and mass spectrometry. The settings on record: DT40 cells blocked in mitosis with colcemid, then forced to exit from mitosis by addition of roscovitine; parent: 12.
For assay [7], the target named is H2B:mRFP (UniProt P06899). As to the kind of experiment: FRET or BRET; FLIM-FRET in cells in interphase; GFP fusion as donor, mRFP or dsRed fusion as acceptor; multiphoton excitation at 890 nm; at least 20 cells per condition.

Take “TrAP:hRepo-Man^WT (from UniProt Q69YH5) RVTF>RAXA (V>A; F>A in the RVTF motif, residue numbers not printed)”: the other: number of peptides identified by mass spectrometry is 12 in assay [1]; 34 in assay [2]; 35 in assay [3]; 17 in assay [4]; -0 in assay [5]; 14 in assay [6].
For “GFP:Repo-Man (from UniProt Q69YH5 1-1023) (natural protein)”, in assay [7], the E FRET worked out at 22%.
